Measurements as given in the RNAGym collection of RNA variant scans (doi:10.1073/pnas.2313332121).

B1: TPR t1 (parent)
chain: GACCAAUCUGCCCUCAGAGCUCGAGAACAUCUUCGGAUGCAGAGGAGGCAGGCUUCGGUGGCGCGAUAGCGCCAACGUCCUCAACCUCCAAUGCAUCCCACCACAUGAUGAUGCCUGAAGAGCCUUGGUUUUUUG

Variants of: B1
Test: polymerase ribozyme fitness, log enrichment relative to wild type (log ratio); higher = more active; in vitro selection for triplet polymerase activity
How it was run: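 Mutant libraries were PCR-built and transcribed for each subunit of a heterodimeric triplet polymerase ribozyme and selected for one round in triplicate at −7 °C, frozen, before gel excision of extended constructs and streptavidin-bead capture. Input and output libraries were Illumina-sequenced, keeping genotypes with ≥10 input reads and ≥1 read per output. Fitness is a logarithmic ratio of genotype to wild-type enrichment, in base 2, using inverse-variance-weighted replicate averages.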

Row | Variant | polymerase ribozyme fitness (log ratio)
1 | GACCAAUCUUCCCUCAGAGCUCGAGAACAUCUUCGGAUGCAGAGGAGGCAGGCUUCGGUGGCGCGAUAGCGCCAACAUCCUCAACCUCCAAUGCAUCCCACCACAGGAUGAUGCCUGAAGAGCCUUGGUUUUUUG | -2.38
2 | GACCAAUCUUCCCUCAGAGCUCGAGAACAUCUUCGGAUGCAGAGGAGGCAGGCUUCGGUGGCGCGAUAGCGCCAACGUCCUCAACCUCCAAUGCAUCCCACCACAUGAAGAUGCCUGAAGAGCCUUGGUUUUUUG | -4.67
3 | GACCAAUCUUCCCUCAGAGCUCGAGAACAUCUUCGGAUGCAGAGGAGGCAGGCUUCGGUGGCGCGAUAGCGCCAACGUCCUCAACAUCCAAUGCAUCCCACUACAUGAUGAUGCCUGAAGAGCCUUGGUUUUUUG | -2.34
4 | GACCAAUCUUCCCUCAGAGCUCGAGAACAUCUUCGGAUGCAGAGGAGGCAGGCUUCGGUGGCGCGAUAGCGCAAACGGCCUCAACCUCCAAUGCAUCCCACCACAUGAUGGUGCCUGAAGAGCCUUGGUUUUUUG | 0.173
5 | GACCAAUCUUCCCUCAGAGCUCGAGAACAUCUUCGGAUGCAGAGGAGGCAGGCUUCGGUGGCGCGAUAGCGCCAACGUCCUCAACCUCAAAUGCAUCCCACCACAUGAUGAUGACUGAAGAGCCUUGGUUUUUUG | -2.81
6 | GACCAAUCUUCCCUCAGAGCUCGAGAACAUCUUCGGAUGCAGAGGAGGCAGGCUUCGGUGUCGCGAUAGCGCCAACGUCCUCAACCUCCAAUGCAUCCCACCACAUGAUGAUGCCUGAAGAGCCUUGGUUUUUUG | 0.128
7 | GACCAAUCUUCCCUCAGAGCUCGAGAACAUCUUCGGAUGCAGAGGAGGCAGGCUUCGGUGGCGCGAUAGCGUCAACGUCUUCAACCUCCAAUGCAUCCCACCACAUGAUGAUGCCUGAAGAGCCUUGGUUUUUUG | -0.683
8 | GACCAAUCUUCCCUCAGAGCUCGAGAACAUCUUCGGAUGCAGAGGAGGCAGGCUUCGGCGGCGCGAUAGCGCCAACGUCCUCAACCUCCAAUGCUUCCCACUACAUGAUGAUGCCUGAAGAGCCUUGGUUUUUUG | -3.58
9 | GACCAAUCUUCCCUCAGAGCUCGAGAACAUCUUCGGAUGCAGAGGAGGCAGGCUUCGGUGACGCGAUAGCGCCAACGUCCUCAACCUCCAAUGCAUCCCACCACAUGAUGAUGCCUGAAGAGACUGGGUUUUUUG | -1.39
10 | GACCAAUCUUCCCUCAGAGCUCGAGAACAUCUUCGGAUGCAGAGGAGGCAGGCUUCGGUGGCGCGAUAGCGCCAACGUCCUCAACCUCCAAUGCAUCACACCACAUGAUGAUGCCUGAAGAGACUUGGUUUUUUG | -4.36
11 | GACCAAUCUUCCCUCAGAGCUCGAGAACAUCUUCGGAUGCAGAGGACGCAAGGUUUGGUGGCGCGAUAGCGCCAACGUCCUCAACCUCCAAUGCAUCCCACCACAUGAUGAUGCCUGAAGAGCCUUGGUUUUUUG | -2.84
12 | GACCAAUCUUCCCUCAGAGCUCGAGAACAUCUUCGGAUGCAGAGGAGGCAGGCUUCGGUGGCGCGAUAGCGCUAACGUCCUCAACCUCCAAAGCAUCCCAUCAUAUGAUGAUGCCUGAAGAGCCUUGGUUUUUUG | -3.23
13 | GACCAAUCUUCCCUCAGAGCUCGAGAACAUCUUCGGAUGCAGAGGAGGCAGGCUUCGGUCGCGCGAUAUCGCCAACGUCCUCAACCUCCAAUGCAUCCCACCACAUGGUGAUGCCUGAAGAGCCUUGGUUUUUUG | -4.87
14 | GACCAAUCUUCCCUCAGAGCUCGAGAACAUCUUCGGAUGCAGAGGAGGCAGGCUUCGGUGGCUCGAUAGCGCCAACGUCCUCAACCUCCAAUGCAUCCCACCACAUGAUGAUGCCUGAAGAGCCUUGGUUUUUUG | -1.31
15 | GACCAAUCUUCCCUCAGAGCUCGAGAACAUCUUCGGAUGCAGAGGAGGCAGGCUUCGGUGGCGCGAUAGCGCCAACGUCCUCAACCUCCAAUGUAUCCCACCACAUGAUGAUGCCUGAAGAGCCUUGGUUUUUUG | -0.599
16 | GACCAAUCUUCCCUCAGAGCUCGAGAACAUCUUCGGAUGCAGAGGAGGCAGGCUUCGGUCGCGCGAUAGCGCCAACGUUCUCAACCUCCAAUGCAUCCCACCACAUGAUGAUGCCUGAACAGCCUUGGUUUUUUG | 0.981
17 | GACCAAUCUUCCCUCAGAGCUCGAGAACAUCUUCGGAUGCAGAGGAGGCAGGCUUCGGUGGCGCGAUAGCGACAACGUCCUCAACCUCCAAUGCAUCCCACCACAUGAUGAUGCCUGAAGAGCCUUGGUUUUUUG | -0.423
18 | GACCAAUCUUCCCUCAGAGCUCGAGAACAUCUUCGGAUGCAGAGGAGGCAGGCUUCGGUGGCGCGAUAGCGUCAACGUCCUCAACCUCCAAUGCAUCCCACCACAUGAUGAUGCCUGAAGAGCCUUGGUUUUUUG | -0.415
19 | GACCAAUCUUCCCUCAGAGCUCGAGAACAUCUUCGGAUGCAGAGGAGGCAGGCUUCGGUGACGCGAUAGCGCCAACGUCCUCAACCUCCAAUGCAUCCCACCACAUGAUGAUGCCUGAAGAGGCUUGGUUUUUUG | 1.03
20 | GACCAAUCUUCCCUCAGAGCUCGAGAACAUCUUCGGAUGCAGAGGAGGCAGGCUACGGUGGCGCGAUAGCCCCAACGUCCUCAACCUCCAAUGCAUCCCACCACAUGAUGAUGCCUGAAGAGCCUUGGUUUUUUG | -1.11
21 | GACCAAUCUUCCCUCAGAGCUCGAGAACAUCUUCGGAUGCAGAGGAGGCAGGCUUCGGCGGCGCGAUAGCGCCAACGUCCUCAACCUCCAAUGCAGCCCACCACAUGAUGAUGCCUAAAGAGCCUUGGUUUUUUG | -4.44

Row | Variant | polymerase ribozyme fitness (log ratio)
22 | GACCAAUCUUCCCACAGAGCUCGAGAACAUCUUCGGAUGCAGAGGAGGCAGGCUUCGGUGGCGCGAUAGCGCCAACGUCCUCAACCUCCAAUGCAUCCCACCACAUGAUGAUGCCCGAAGCGCCUUGGUUUUUUG | -4.9
23 | GACCAAUCUUCCCUCAGAGCUCGAGAACAUCUUCGGAUGCAGAGGAGGCAAGCUUCGGUGUCGCGAUAGCGCCAACGUCCUCAACCUCCAAUGCAUCCCCCCACAUGAUGAUACCUGAAAAGCCUUGGUUUUUUG | -4.29
24 | GACCAAUCUUCCCUCAGAGCUCGAGAACAUCUUCGGAUGCAGAGGAGGCAGGCUUCGGUGGCGCGAUAGCGCCAACUGCCUCAACCUCCAAUGCAUCCCACCACAUGAUGAUGACUGAAGAGCCUUGGUUUUUUG | -2.65
25 | GACCAAUCUUCCCUCAGAGCUCGAGAACAUCUUCGGAGGCAGAGGAGGCAGGCUUCGGUGGCGCGAUAGCGCCAACGACCUCAACCUCCAAUGCAUCCCACCACAUGAUGAUGCCUGAAGAGCCUUGAUUUUUUG | -3.77
26 | GACCAAUCUUCCCUCAGAGCUCGAGAACAUCUUCGGAUCCAGAGGCGGCAGGCUUCGGUGGCGCGAUAGCGCCAACGUCCUCAACCUCCAAUGCAUCCCACCACAUGAUGAUGCCGGAAGAGCCUUGGUUUUUUG | -3.17
27 | GACCAAUCUUCCCUCAGAGCUCGAGAACAUCUUCGGAUGCAUAGAAGGCAGGCUUCGGUGUCGCGAUAGCGCCAACGUCCUCAAUCUCCAAUGCAUCCCACCACAUGAUGAUGCCUGAAGAGCCUUGGUUUUUUG | -2.25
28 | GACCAAUCUUCCCUCAGACCUCGAGAACAUCUUCGGUUGCAGAGGAGGCAGGCUUCGGUGGCGCGAUAGCGACAACGUCCUCAACCUCCAAUGCAUCCCACCACAUGAUGAUGCCUGAAGAGGCUUGGUCUUUUG | -1.39
29 | GACCAAUCUUCCCUCAGAGCUCGAGAACAUCUUCGGAUGCAGAGGAGGCAGGCUUCGGUGGCGCGAUAGCGCGAACGUCCUCAACCUCCAAAGCAUCCCAUCAUAUGAUGAUGCCUGAAGAGCCUUGGUUUUUUG | -4.21
30 | GACCAAUCUUCCCUCAGAGCUCGAGAACAUCUUCGGAUUCAGAGGAGGCAGGCUUCGGUGGCUCGAUAGCGCCAACGUCCUCAACCUCCAAUGCAUCCCACCACAUGAUGAUGCCUGAAAAGCCUUGGUUUUUUG | -0.0221
31 | GACCAAUCUUCCCUCAGAGCUCGAGAACAUCUUCGGAUGCAGAGGAAGCAGGCUUCGGUGGCGCGAUAGCGCCAACGUCCUCAACCUCCAAUGCAUCCCACCACAUGAUGAUGCCUGAAGAGCCUUGGUUUUUUG | -0.776
32 | GACCAAUCUUCCCUCAGAGCUCGAGAACAUCUUCUGAUGCAGAGGAGGCAGGCUUCGGUGGCGCGUUAUCGCCAACGUCCUCAACCUCCAAUACAUCCCACCACAUGAUGAUGCCUGAAGAGCCUUGGUUUUUUG | -5.9
33 | GACCAAUCUUCCCUCAGAGCGCGAGAACAUCUUCGGAUGCAGAGGAGGCAGGCUUCGGUGGCGCGAUAGAGCCAACGUCCUCAACCUCCAAUGCAUCCCACCACAUGAUGAUGCCUGAAGAGCCUUGGUUUUUUG | -5.22
34 | GACCAAUCUUCCCUCAGAGCUCGAGAACAUCUUCGCAUGCAGAGGAGGCAGGCUUCGGUGGCGCGAUAGCGCCAACGUCCUCAACGUCCAAUGCAUCCCACCACAUGAUGAUGCCUGAAGAGCCUUGCUUUUUUG | -5.29
35 | GACCAAUCUUCCCUCAGAGCUCGAGAACAUCUUCGGAUGCAGAGGAGACAGGCUUCGGUGGCGCGAUAGCGCCAACGUCCUCAACCUCCAAUACAUCCCACCACAUGAUGAUGGCUGAAGAGCCUUGGUUUUUUG | -5.11
36 | GACCAAUCUUCCCUCAGAGCUCGAGAACAUCUUCGGAUGCAGAGGAGGCAGGCUUCGGUGGCGCGAUAGCGCCAACGUCCUCAACCUCCAAUGCAUCCCACCACAUGAUGAAGUCUGAAGAGCCUUGGUUUUUUG | -1.01
37 | GACCAAUCUUCCCUCAGAGCUCGAGAACAUCUUCGGAUGCAGACGAGGCAGGCUUCGGUGGCGCGAUAGCGCCAACGUCCUCAACCUUCAAUGCAUCCCACCACGUGAUGAUGCCUGAACAGCCUUGGUUUUUUG | -3.52
38 | GACCAAUCUUCCCUCAGAGCUCGAGAACAUCUUCGGAUGCAGAGGAGGCAGGCUUCGGUGGCGCGAUAGCCCCAACGUCCUCAACCUCCAAUGCAUCCCACCACAUGAUGAUGCCUGAAGAGCCUUGGUUUUUUU | -3.12
39 | GACCAAUCUUCCCUCAGAGCUCGAGAACAUCUUCGGAUGCAGAGGAGGCAGGCUUCGGUGGCGCGAUAGCGCCAACGUCCUCAACCUCCAAUGCAUCCCACCACAUGAUCAUGCCUGAAGAGCCUUGGUUUUUUG | -4.86
40 | GACCAAUCUUCCCUCAGAGCUCGAGAACAUCUUCGGAUGCAGAGGAGGCAGGCUUCGGUCGCGCGAUAGCGCCAACGUCCUCAACCUCCAAUGCAUCCCACCACAUGAUGAUGCCUGAAGAACCUUGGUUUUUUG | 0.255
41 | GACCAAUCUUCCCUCAGAGCUCGAGAACAUCUUCGGAUGCAGAGGAGGCAGGCUUCGGUGGCGCGAUAUCGCCAACGUCCUCAACCUCCAAUGCAUCCCACCACAUGAUGAUGCCUGAAGAGCCUUGGUUUUUUG | 0.293
42 | GACCAAUCUUCCCUCAGAGCUCGAGAACAUCUUCGGAUGCAGAGGAGGCAGGCUUCGGUGGCGCGAUAGCGCCAACAUCCUCAACCUCCAAUUCAUCCCACCACAUGAUGAUGCCUGAAGAGCCUUGGCUUUUUG | -2.07
